US12441790B2, “Binding proteins to the human thrombin receptor, PAR4” (MONASH UNIVERSITY, priority 2017, dated 2025)

Experiments:
PAR1 = target: T1, PAR1 (Homo sapiens, UniProt P25116); conditions: in combination with single or dual antiplatelet therapy; cited from earlier work
T1 construct: host or cells: patients in clinical trials
T1 sequence (P25116 22-425): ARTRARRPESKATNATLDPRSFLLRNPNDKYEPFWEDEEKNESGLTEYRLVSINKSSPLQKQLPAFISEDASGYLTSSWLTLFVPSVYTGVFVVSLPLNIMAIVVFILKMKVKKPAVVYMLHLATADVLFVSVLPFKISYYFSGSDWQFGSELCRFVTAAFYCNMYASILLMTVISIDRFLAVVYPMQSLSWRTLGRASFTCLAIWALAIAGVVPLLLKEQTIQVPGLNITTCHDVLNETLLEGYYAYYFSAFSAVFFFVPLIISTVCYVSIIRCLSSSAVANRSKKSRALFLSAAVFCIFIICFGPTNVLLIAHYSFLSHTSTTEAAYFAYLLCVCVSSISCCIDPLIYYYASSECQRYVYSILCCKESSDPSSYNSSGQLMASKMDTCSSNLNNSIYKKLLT

PAR2 = target: T2, PAR2 (Homo sapiens, UniProt P55085); test: ELISA binding ratio to PAR2; conditions: second screening
T2 construct: host or cells: synthetic peptide
T2 sequence (P55085 with tags, fused parts or gaps limits assumed): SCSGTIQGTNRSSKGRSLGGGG
Method: (§1) 96-well ELISA plates were coated with 50 μl of antigen diluted to a concentration of 4 μg/ml in coating buffer (0.1M Sodium Hydrogen Carbonate (NaHCO3) (Merck, #1.06329.0500)). Plates were incubated overnight at 4° C.
(§2) Wells were then washed with an automated plate washer (300 μl 1×PBS, 3 times). The wells were blocked with 200 μl of blocking buffer (3% BSA/1×PBS (BSA: (Sigma, #1001647742)) for 1 hour at room temperature followed by washing as above.
(§3) 50 μl of undiluted hybridoma cell culture supernatant was added into appropriate wells and incubated at room temperature for 1 hour followed by washing as above. […] Wells were washed as above. A set of substrate tablets (1×silver, 1×gold) into 20 ml of ddH20 by shaking vigorously on the thermomixer for 6 mins at room temperature. 50 μl of substrate ([…]™ p-Nitrophenyl phosphate Tablets (Sigma-Aldrich, N2770-50SET)) was added into each well and incubated for 20-25 mins at room temperature. 50 μl of STOP solution (2M Sodium Hydroxide, Solid (NaOH) (Merck, Cas #1310-73-2)) was added into each well to stop the reaction. Absorbance was read at 405 nm immediately after adding STOP solution with the ELISA reader, using the ‘RdrOle4’ software.

human platelets = test: Functional screen of hybridoma supernatants by platelet aggregation assay; type: cell-based; conditions: aggregation as % of control
Method: Platelet aggregation was measured by light transmission aggregometry in a 96-well plate format. Human isolated platelets (2×10^8/ml) were pre-treated for 10 mins at 37° C. with dimethylsulfoxide (DMSO) (1% v/v), the PAR1 antagonist vorapaxar (90 nM), the anti-PAR4 antibody 5RC3 (20-100 μg/ml), or a combination of vorapaxar and 5RC3. Platelets were treated with one of thrombin (0.1 U/ml) and aggregation was analysed at 37° C. in a FLUOstar OPTIMA plate reader (BMG Labtech) using a 595 nm excitation filter, for a period of 50 min (10 read cycles with 5 min double orbital shake period between each read). Optical density was normalised against the blank (maximum) and unstimulated platelets (minimum) and expressed as % maximum.
Thrombin-induced platelet aggregation in the presence of a PAR1 antagonist (i.e. PAR4-dependent aggregation) is shown for 30 monoclonal antibody supernatants binding to human platelets. Antibody supernatant was mixed with human platelets (2×10^8 cells) at a 1:1 ratio.

native PAR4 peptide = target: T3, native PAR4 peptide (Homo sapiens, UniProt Q96RI0); test: ELISA screening of hybridoma supernatants, native vs KLH-linked PAR4 peptide; type: binding; conditions: first screening; clone; hybridoma supernatant
T3 construct: host or cells: synthetic peptide
Method: as §1, §2, §3

[1] = target: T4, human PAR4 containing an N-terminal FLAG tag (Homo sapiens, UniProt Q96RI0); test: PAR4 thrombin cleavage assay, FLAG-tagged PAR4 on HEK293 cells, flow cytometry; type: cell-based
T4 construct: expressed in transfected cells; host or cells: HEK293 / HEK293T
T4 sequence (Q96RI0 18-385): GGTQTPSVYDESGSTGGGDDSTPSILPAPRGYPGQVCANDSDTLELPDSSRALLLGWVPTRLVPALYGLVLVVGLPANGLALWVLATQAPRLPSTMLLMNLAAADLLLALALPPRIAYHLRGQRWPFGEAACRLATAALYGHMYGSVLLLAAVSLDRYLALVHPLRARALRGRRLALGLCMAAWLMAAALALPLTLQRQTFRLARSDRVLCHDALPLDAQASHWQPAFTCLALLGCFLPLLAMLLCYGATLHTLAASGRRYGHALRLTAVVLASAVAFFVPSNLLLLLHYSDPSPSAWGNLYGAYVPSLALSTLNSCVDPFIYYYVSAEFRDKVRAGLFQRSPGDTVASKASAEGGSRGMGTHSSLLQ
Method: 1×10^6 HEK293T cells (in Dulbecco's modified eagle's medium+10% foetal calf serum) were seeded onto 12-well plates 24 hours before transfection. When confluent, they were transiently transfected with 1 μg of DNA from one of the PAR4 variants (expression vectors pBJ-FLAG-PAR4-120A-296F or pBJ-FLAG-PAR4-120T-296F; Edelstein et al (2014) Blood 124(23):3450-8) plus 4 μL of Lipofectamine 2000, as per manufacturer's instructions. Forty-eight hours after transfection, cells were harvested and washed twice with PBS, then resuspended to a count of 1×10^6/mL. Cells (50 μL assays/0.5×10^5 cells per condition) were then pre-treated with either 1, 10 or 100 μg/mL of 5RC3 or sub-clone 5A.RC3.F10b.H4b or 100 μg/mL matched Isotype control (mouse IgG1) for 15 minutes at 37° C. Cells were then stimulated with 2 U/mL of thrombin for 10 minutes. The reaction was stopped by the addition of 4 U/mL hirudin. Cells were then washed once and resuspended with PBS containing a 1:200 dilution of FITC anti-FLAG antibody (Sigma, clone M2) and incubated for 1 hour at room temperature in the dark. Cells were then fixed with 1% paraformaldehyde (final concentration) and read on a FACSCalibur flow cytometer to determine % of FL1/FITC-Positive events. Data were normalised against the resting sample (100%, no thrombin treatment).
Monoclonal antibody hybridoma supernatants (MoB5ARC3, MoB5BRB4, MoB5BRC6, MoB5BRH3 and MoB5CRC4) were screened for their ability to […] intact PAR4 present on the surface of HEK293 cells transfected with human PAR4 containing an N-terminal FLAG tag.
[…] Cleavage of PAR4 by thrombin was measured by loss of FLAG tag from the PAR4 expression HEK293T cells using flow cytometry.

CCOC(=O)N[C@@H]1CC[C@@H]2[C@@H](C1)C[C@H]1C(=O)O[C@H](C)[C@H]1[C@H]2/C=C/c1ccc(-c2cccc(F)c2)cn1 [vorapaxar]
intracranial bleeding (PAR1): significantly increased rates of intracranial bleeding

B1: MoB5F E6: hybridoma supernatant clone, second screening; likely parent of 5F.RE6 (antibody, V domains shown)
VH: QVQLAESGGGVVQPGRSLRVSCAASGFTFSSYGMHWVRQAPGKGLEWVAVIWYDGTKKYYADSLKGRFTISRDNSKYTLYLQMNSLRADDTALYFCARKGARGITGLDYWGQGTLVTVSS
VL: DIQMTQSPSSLSASAGDRITITCRASQSISNYLNWYQQKPGKAPKLLIYAASSLQSGVPSRFSGSGSGTDFTLTISSLQPEDFASYYCRQNYNTPLTFGGGTKVEIK
Binding to PAR2 ratio (PAR2): 1.3
Functional screen on hybridoma supernatants (human platelets): Yes (+) (aggregation between 50-80% of control)

B2: MoB5G G1: hybridoma supernatant clone, second screening; likely parent of 5G.RG1 (antibody, V domains shown)
VH: QVQLVESGGGVVQPGRSLRLSCVASGFTLSSYGMHWVRQAPGKGLEWVAVIWYDGSSKYYTDSVKGRFDISRDNSKNTLYLQMNILRAEDTAVYYCARETILIGGVPFDYWGQGTLVTVSS
VL: EIVLTQSPGTLSLSPGERATLSCGASQSIRSNYLAWYQQKPGQAPRLLIYGASSRATGTPDRFSGSGSGTDFTLTITRLEPEDFALYYCQQYGRSYTFGQGTKLEIK
Binding to PAR2 ratio (PAR2): 1.0
Functional screen on hybridoma supernatants (human platelets): Yes (+++) (aggregation <25% of control)

B3: MoB5AR C3: parent hybridoma clone (supernatant) from which 5A.RC3.F10b.H4b was sub-cloned (antibody, V domains shown)
VH: QVQLVESGGGVVQPGRSLRLSCAASGFTLSNYGMHWVRQAPGKGLEWVSVIWYDGSNKHYADSVKGRFTISRDNSKNTLYLQMNSLRAEDTAVYYCARESIVEVLPPFDYWGQGTLVTVSS
VL: KIVLTQSPGTLSLSPGERVTLSCRASQRVRNNYLAWFQQKPGQAPRLFIYGASSRATGIPDRFSGSGSGTDFIFTISRLEPEDFAVYYCQQYGNSYTFGQGTKLEIK
modifications: VH of 5A.RC3; VL of 5A.RC3
notes: parent hybridoma clone (supernatant) from which 5A.RC3.F10b.H4b was sub-cloned
Fold binding native vs KLH-linked PAR4 peptide (native PAR4 peptide): 19.9
Functional screen on hybridoma supernatants that exhibited binding ([1]; % of uncleaved PAR4 peptide expressed on HEK293 cells): Yes (Hybridoma supernatants that demonstrated greater than 70% of uncleaved PAR4 were considered positive)
blocked thrombin-induced cleavage of PAR4 ([1]; initial screen of hybridoma supernatants, thrombin 2 U/ml for 10 mins): at least 90%
block of thrombin-induced cleavage of PAR4 ([1]; initial screen, thrombin 2 U/ml for 10 mins): almost completely blocked thrombin-induced cleavage of PAR4
